The text below walks through data of patent US20140213513A1 (Sanofi, priority 2012, published 2014).

The chains are these.
T1: human GIP receptor (human, UniProt P48546 22-466)
T1 sequence (looked up): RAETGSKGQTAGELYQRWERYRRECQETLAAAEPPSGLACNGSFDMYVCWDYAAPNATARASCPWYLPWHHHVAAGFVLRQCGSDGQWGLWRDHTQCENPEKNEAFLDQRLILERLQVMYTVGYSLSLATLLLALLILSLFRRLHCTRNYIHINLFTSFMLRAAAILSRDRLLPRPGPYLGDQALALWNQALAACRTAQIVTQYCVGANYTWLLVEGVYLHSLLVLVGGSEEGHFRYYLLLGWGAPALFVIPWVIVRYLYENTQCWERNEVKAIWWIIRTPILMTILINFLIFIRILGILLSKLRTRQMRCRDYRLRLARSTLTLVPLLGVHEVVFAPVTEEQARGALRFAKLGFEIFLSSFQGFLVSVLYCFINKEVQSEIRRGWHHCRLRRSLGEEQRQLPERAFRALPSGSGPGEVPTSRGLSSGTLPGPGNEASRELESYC

B1: exendin-4 peptide analogue SEQ ID NO: 60 (peptide)
peptide: Y[Aib]QGTFTSDLSKQK([γGlu-Stearoyl])DEEAARLFIEWLKAGGPSSGAPPPS-NH2
modifications: N-terminus assumed
SMILES: CCCCCCCCCCCCCCCCCC(=O)N[C@@H](CCC(=O)NCCCC[C@H](NC(=O)[C@H](CCC(N)=O)NC(=O)[C@H](CCCCN)NC(=O)[C@H](CO)NC(=O)[C@H](CC(C)C)NC(=O)[C@H](CC(=O)O)NC(=O)[C@H](CO)NC(=O)[C@@H](NC(=O)[C@H](Cc1ccccc1)NC(=O)[C@@H](NC(=O)CNC(=O)[C@H](CCC(N)=O)NC(=O)C(C)(C)NC(=O)[C@@H](N)Cc1ccc(O)cc1)[C@@H](C)O)[C@@H](C)O)C(=O)N[C@@H](CC(=O)O)C(=O)N[C@@H](CCC(=O)O)C(=O)N[C@@H](CCC(=O)O)C(=O)N[C@@H](C)C(=O)N[C@@H](C)C(=O)N[C@@H](CCCNC(=N)N)C(=O)N[C@@H](CC(C)C)C(=O)N[C@@H](Cc1ccccc1)C(=O)N[C@H](C(=O)N[C@@H](CCC(=O)O)C(=O)N[C@@H](Cc1c[nH]c2ccccc12)C(=O)N[C@@H](CC(C)C)C(=O)N[C@@H](CCCCN)C(=O)N[C@@H](C)C(=O)NCC(=O)NCC(=O)N1CCC[C@H]1C(=O)N[C@@H](CO)C(=O)N[C@@H](CO)C(=O)NCC(=O)N[C@@H](C)C(=O)N1CCC[C@H]1C(=O)N1CCC[C@H]1C(=O)N1CCC[C@H]1C(=O)N[C@@H](CO)C(N)=O)[C@@H](C)CC)C(=O)O
B2: exendin-4 peptide analogue SEQ ID NO: 59 (peptide)
peptide: Y[Aib]EGTFTSDLSIQK([γGlu-Palmitoyl])EKRAAHEFIEWLKNTGPSSGAPPPS-NH2
modifications: N-terminus assumed
SMILES: CCCCCCCCCCCCCCCC(=O)N[C@@H](CCC(=O)NCCCC[C@H](NC(=O)[C@H](CCC(N)=O)NC(=O)[C@@H](NC(=O)[C@H](CO)NC(=O)[C@H](CC(C)C)NC(=O)[C@H](CC(=O)O)NC(=O)[C@H](CO)NC(=O)[C@@H](NC(=O)[C@H](Cc1ccccc1)NC(=O)[C@@H](NC(=O)CNC(=O)[C@H](CCC(=O)O)NC(=O)C(C)(C)NC(=O)[C@@H](N)Cc1ccc(O)cc1)[C@@H](C)O)[C@@H](C)O)[C@@H](C)CC)C(=O)N[C@@H](CCC(=O)O)C(=O)N[C@@H](CCCCN)C(=O)N[C@@H](CCCNC(=N)N)C(=O)N[C@@H](C)C(=O)N[C@@H](C)C(=O)N[C@@H](Cc1c[nH]cn1)C(=O)N[C@@H](CCC(=O)O)C(=O)N[C@@H](Cc1ccccc1)C(=O)N[C@H](C(=O)N[C@@H](CCC(=O)O)C(=O)N[C@@H](Cc1c[nH]c2ccccc12)C(=O)N[C@@H](CC(C)C)C(=O)N[C@@H](CCCCN)C(=O)N[C@@H](CC(N)=O)C(=O)N[C@H](C(=O)NCC(=O)N1CCC[C@H]1C(=O)N[C@@H](CO)C(=O)N[C@@H](CO)C(=O)NCC(=O)N[C@@H](C)C(=O)N1CCC[C@H]1C(=O)N1CCC[C@H]1C(=O)N1CCC[C@H]1C(=O)N[C@@H](CO)C(N)=O)[C@@H](C)O)[C@@H](C)CC)C(=O)O
B3: exendin-4 peptide analogue SEQ ID NO: 63 (peptide)
peptide: Y[Aib]EGTFTSDLSKQK([γGlu-Palmitoyl])DKRAAQDFIEWLKAGGPSSGAPPPS-NH2
modifications: N-terminus assumed
SMILES: CCCCCCCCCCCCCCCC(=O)N[C@@H](CCC(=O)NCCCC[C@H](NC(=O)[C@H](CCC(N)=O)NC(=O)[C@H](CCCCN)NC(=O)[C@H](CO)NC(=O)[C@H](CC(C)C)NC(=O)[C@H](CC(=O)O)NC(=O)[C@H](CO)NC(=O)[C@@H](NC(=O)[C@H](Cc1ccccc1)NC(=O)[C@@H](NC(=O)CNC(=O)[C@H](CCC(=O)O)NC(=O)C(C)(C)NC(=O)[C@@H](N)Cc1ccc(O)cc1)[C@@H](C)O)[C@@H](C)O)C(=O)N[C@@H](CC(=O)O)C(=O)N[C@@H](CCCCN)C(=O)N[C@@H](CCCNC(=N)N)C(=O)N[C@@H](C)C(=O)N[C@@H](C)C(=O)N[C@@H](CCC(N)=O)C(=O)N[C@@H](CC(=O)O)C(=O)N[C@@H](Cc1ccccc1)C(=O)N[C@H](C(=O)N[C@@H](CCC(=O)O)C(=O)N[C@@H](Cc1c[nH]c2ccccc12)C(=O)N[C@@H](CC(C)C)C(=O)N[C@@H](CCCCN)C(=O)N[C@@H](C)C(=O)NCC(=O)NCC(=O)N1CCC[C@H]1C(=O)N[C@@H](CO)C(=O)N[C@@H](CO)C(=O)NCC(=O)N[C@@H](C)C(=O)N1CCC[C@H]1C(=O)N1CCC[C@H]1C(=O)N1CCC[C@H]1C(=O)N[C@@H](CO)C(N)=O)[C@@H](C)CC)C(=O)O
B4: exendin-4 peptide analogue SEQ ID NO: 61 (peptide)
peptide: Y[Aib]QGTFTSDLSKQK([γGlu-Palmitoyl])DSKAAQDFIEWLKAGGPSSGAPPPS-NH2
modifications: N-terminus assumed
SMILES: CCCCCCCCCCCCCCCC(=O)N[C@@H](CCC(=O)NCCCC[C@H](NC(=O)[C@H](CCC(N)=O)NC(=O)[C@H](CCCCN)NC(=O)[C@H](CO)NC(=O)[C@H](CC(C)C)NC(=O)[C@H](CC(=O)O)NC(=O)[C@H](CO)NC(=O)[C@@H](NC(=O)[C@H](Cc1ccccc1)NC(=O)[C@@H](NC(=O)CNC(=O)[C@H](CCC(N)=O)NC(=O)C(C)(C)NC(=O)[C@@H](N)Cc1ccc(O)cc1)[C@@H](C)O)[C@@H](C)O)C(=O)N[C@@H](CC(=O)O)C(=O)N[C@@H](CO)C(=O)N[C@@H](CCCCN)C(=O)N[C@@H](C)C(=O)N[C@@H](C)C(=O)N[C@@H](CCC(N)=O)C(=O)N[C@@H](CC(=O)O)C(=O)N[C@@H](Cc1ccccc1)C(=O)N[C@H](C(=O)N[C@@H](CCC(=O)O)C(=O)N[C@@H](Cc1c[nH]c2ccccc12)C(=O)N[C@@H](CC(C)C)C(=O)N[C@@H](CCCCN)C(=O)N[C@@H](C)C(=O)NCC(=O)NCC(=O)N1CCC[C@H]1C(=O)N[C@@H](CO)C(=O)N[C@@H](CO)C(=O)NCC(=O)N[C@@H](C)C(=O)N1CCC[C@H]1C(=O)N1CCC[C@H]1C(=O)N1CCC[C@H]1C(=O)N[C@@H](CO)C(N)=O)[C@@H](C)CC)C(=O)O
B5: exendin-4 peptide analogue SEQ ID NO: 11 (peptide)
peptide: Y[Aib]QGTFTSDLSIQK([γGlu-Palmitoyl])EKR[Aib]A[Aib]EFIEWLKNTGPSSGAPPPS-NH2
modifications: N-terminus assumed
SMILES: CCCCCCCCCCCCCCCC(=O)N[C@@H](CCC(=O)NCCCC[C@H](NC(=O)[C@H](CCC(N)=O)NC(=O)[C@@H](NC(=O)[C@H](CO)NC(=O)[C@H](CC(C)C)NC(=O)[C@H](CC(=O)O)NC(=O)[C@H](CO)NC(=O)[C@@H](NC(=O)[C@H](Cc1ccccc1)NC(=O)[C@@H](NC(=O)CNC(=O)[C@H](CCC(N)=O)NC(=O)C(C)(C)NC(=O)[C@@H](N)Cc1ccc(O)cc1)[C@@H](C)O)[C@@H](C)O)[C@@H](C)CC)C(=O)N[C@@H](CCC(=O)O)C(=O)N[C@@H](CCCCN)C(=O)N[C@@H](CCCNC(=N)N)C(=O)NC(C)(C)C(=O)N[C@@H](C)C(=O)NC(C)(C)C(=O)N[C@@H](CCC(=O)O)C(=O)N[C@@H](Cc1ccccc1)C(=O)N[C@H](C(=O)N[C@@H](CCC(=O)O)C(=O)N[C@@H](Cc1c[nH]c2ccccc12)C(=O)N[C@@H](CC(C)C)C(=O)N[C@@H](CCCCN)C(=O)N[C@@H](CC(N)=O)C(=O)N[C@H](C(=O)NCC(=O)N1CCC[C@H]1C(=O)N[C@@H](CO)C(=O)N[C@@H](CO)C(=O)NCC(=O)N[C@@H](C)C(=O)N1CCC[C@H]1C(=O)N1CCC[C@H]1C(=O)N1CCC[C@H]1C(=O)N[C@@H](CO)C(N)=O)[C@@H](C)O)[C@@H](C)CC)C(=O)O
B6: exendin-4 peptide analogue SEQ ID NO: 62 (peptide)
peptide: Y[Aib]EGTFTSDLSIQK([γGlu-Stearoyl])EEEAVKLFIEWLKAGGPSSGAPPPS-NH2
modifications: N-terminus assumed
SMILES: CCCCCCCCCCCCCCCCCC(=O)N[C@@H](CCC(=O)NCCCC[C@H](NC(=O)[C@H](CCC(N)=O)NC(=O)[C@@H](NC(=O)[C@H](CO)NC(=O)[C@H](CC(C)C)NC(=O)[C@H](CC(=O)O)NC(=O)[C@H](CO)NC(=O)[C@@H](NC(=O)[C@H](Cc1ccccc1)NC(=O)[C@@H](NC(=O)CNC(=O)[C@H](CCC(=O)O)NC(=O)C(C)(C)NC(=O)[C@@H](N)Cc1ccc(O)cc1)[C@@H](C)O)[C@@H](C)O)[C@@H](C)CC)C(=O)N[C@@H](CCC(=O)O)C(=O)N[C@@H](CCC(=O)O)C(=O)N[C@@H](CCC(=O)O)C(=O)N[C@@H](C)C(=O)N[C@H](C(=O)N[C@@H](CCCCN)C(=O)N[C@@H](CC(C)C)C(=O)N[C@@H](Cc1ccccc1)C(=O)N[C@H](C(=O)N[C@@H](CCC(=O)O)C(=O)N[C@@H](Cc1c[nH]c2ccccc12)C(=O)N[C@@H](CC(C)C)C(=O)N[C@@H](CCCCN)C(=O)N[C@@H](C)C(=O)NCC(=O)NCC(=O)N1CCC[C@H]1C(=O)N[C@@H](CO)C(=O)N[C@@H](CO)C(=O)NCC(=O)N[C@@H](C)C(=O)N1CCC[C@H]1C(=O)N1CCC[C@H]1C(=O)N1CCC[C@H]1C(=O)N[C@@H](CO)C(N)=O)[C@@H](C)CC)C(C)C)C(=O)O

*1 amine or outer side, *2 acyl side, *3 side chain or, on linkers, in order; H or OH if unused. Where no end group is shown, it is not given here. Side-chain parts run from the residue outwards. [ ]: non-standard residue; d: D form. The star is where a group is joined. γGlu = O=C(O)[C@H](CCC(=O)[*:2])N[*:1]; Stearoyl = CCCCCCCCCCCCCCCCCC(=O)*; Palmitoyl = CCCCCCCCCCCCCCCC(=O)*; Aib = CC(C)(N)C(=O)O

The target of one assay is human GLP-1 receptor (human, UniProt P43220 24-463). Description: cell-based or functional assay.
Take B1: the “EC50 hGLP-1 R” value amounted to 0.0053 nM.

On to B2, for which the “EC50 hGLP-1 R” value is 0.0075 nM.

Regarding B3, the “EC50 hGLP-1 R” value came out at 0.006 nM.

For B4, the “EC50 hGLP-1 R” value turned out to be 0.0024 nM.

Turning to B5, the “EC50 hGLP-1 R” value came to 0.0038 nM.

B6: the “EC50 hGLP-1 R” value stood at 0.0076 nM.

A further assay concerns the target T1, human GIP receptor. Put plainly: cell-based or functional assay.
In the case of B1, the “EC50 hGIP R” value was found to be 0.0168 nM.

Turning to B2, the “EC50 hGIP R” value turned out to be 0.0175 nM.

On to B3, for which the “EC50 hGIP R” value came to 0.0119 nM.

On to B4, for which the “EC50 hGIP R” value was 0.0214 nM.

Regarding B5, the “EC50 hGIP R” value is 0.0144 nM.

Consider B6, for which the “EC50 hGIP R” value stood at 0.0067 nM.

For a further assay, the target named is human glucagon receptor (human, UniProt P47871 26-477). Description: cell-based or functional assay.
Chain of human glucagon receptor (P47871 26-477): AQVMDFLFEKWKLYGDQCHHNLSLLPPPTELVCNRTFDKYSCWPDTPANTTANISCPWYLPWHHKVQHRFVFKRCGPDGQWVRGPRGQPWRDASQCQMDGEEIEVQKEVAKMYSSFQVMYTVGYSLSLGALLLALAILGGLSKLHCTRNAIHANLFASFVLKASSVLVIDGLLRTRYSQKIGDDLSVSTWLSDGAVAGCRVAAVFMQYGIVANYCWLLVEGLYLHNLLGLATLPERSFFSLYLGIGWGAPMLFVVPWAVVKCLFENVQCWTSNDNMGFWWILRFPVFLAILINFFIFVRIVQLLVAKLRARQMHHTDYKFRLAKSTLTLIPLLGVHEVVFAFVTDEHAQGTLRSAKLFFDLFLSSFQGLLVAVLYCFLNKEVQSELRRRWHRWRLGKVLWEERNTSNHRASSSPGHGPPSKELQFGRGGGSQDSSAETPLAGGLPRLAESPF
For the molecule B1, the “EC50 hGLUC R” value worked out at 0.0091 nM.

Take B2: the “EC50 hGLUC R” value was 12.3 nM.

B3: the “EC50 hGLUC R” value stood at 1.67 nM.

In the case of B4, the “EC50 hGLUC R” value came out at 0.0061 nM.

Turning to B5, the “EC50 hGLUC R” value was determined as 0.0669 nM.

As for B6, the “EC50 hGLUC R” value is greater than 1000 nM.
